# Experimental data as given in US20250186620A1 (DUKE UNIVERSITY, published 2025).
# Where a chain is given by its changes, count along the chain named. In names and notes the source's numbering stands.
# T1: human connexin36 (Cx36) (human, UniProt Q9UKL4 1-321)
# T1 construct: whole, on cells; Hemichannel expressed in HEK 293FT cells for FETCH; also called GJD2; not shown: C-terminal fluorescent protein fusion (mEmerald or RFP670 in FETCH)
# T1 sequence (looked up): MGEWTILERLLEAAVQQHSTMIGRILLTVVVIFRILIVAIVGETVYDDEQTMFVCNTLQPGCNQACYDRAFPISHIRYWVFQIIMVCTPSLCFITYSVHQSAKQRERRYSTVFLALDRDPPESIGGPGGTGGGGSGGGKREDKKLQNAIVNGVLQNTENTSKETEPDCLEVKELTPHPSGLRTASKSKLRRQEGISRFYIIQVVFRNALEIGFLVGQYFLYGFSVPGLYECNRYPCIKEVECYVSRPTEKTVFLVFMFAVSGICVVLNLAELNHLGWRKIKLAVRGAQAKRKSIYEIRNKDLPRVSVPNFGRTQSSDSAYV
# T2: Wild-type Connexin35 (Cx35) of Morone americana (Morone americana)
# T2 construct: Connexin hemichannel (hexamer) expressed in HEK 293FT cells; In C. elegans it was expressed as GFP or mCherry fusion; also called Cx35WT; not shown: C-terminal fluorescent protein fusion (mEmerald or RFP670 in FETCH)
# T2 chain: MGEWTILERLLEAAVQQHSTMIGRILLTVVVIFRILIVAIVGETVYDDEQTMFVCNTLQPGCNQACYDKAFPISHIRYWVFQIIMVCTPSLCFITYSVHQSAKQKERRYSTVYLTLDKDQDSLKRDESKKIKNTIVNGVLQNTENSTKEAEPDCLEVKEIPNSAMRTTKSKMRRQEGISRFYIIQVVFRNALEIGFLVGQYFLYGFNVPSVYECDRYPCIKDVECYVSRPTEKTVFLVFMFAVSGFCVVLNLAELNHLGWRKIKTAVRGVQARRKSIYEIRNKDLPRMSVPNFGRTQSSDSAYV
# T3: Cx35E224H (Morone americana Cx35 mutant E224H) (Morone americana)
# T3 construct: Extracellular loop mutant of the screening library; not shown: C-terminal fluorescent protein fusion (mEmerald or RFP670 in FETCH)
# T3 chain: T2 chain with E224H
# B1: Cx34.7E214K/E223K/E225K (Morone americana Cx34.7 triple mutant) (protein, not shown: large carriers)
# chain: MGEWTILERLLEAAVQQHSTMIGRILLTVVVIFRILIVAIVGETVYEDEQAMFICNTLQPGCNQACYDKAFPISHIRYWVFQIILVCTPSLCFITYSVHQSAKQKDRRYSFLYPIMERDYGGRDGARKLRNINGILVQHGGDGGGGKEEPDCLEVKEIPNAPRGLTHGKSSKVRRQEGISRFYIIQVVFRNALEIGFLAGQYFLYGFSVPGIFKCDRYPCLKKVKCYVSRPTEKTVFLVFMFAVSGICVVLNLAELNHLGWRKIKAAIRGVQARRKSICEIRKKDMAHLSQPPNLGRTQSSESAYV
# B2: Wild-type Connexin34.7 (Cx34.7) of Morone americana (other)
# chain: B1 chain with K214E, K223E, K225E
# notes: In C. elegans it was expressed as GFP or mCherry fusion; also called Cx34.7WT; not shown: C-terminal fluorescent protein fusion (mEmerald or RFP670 in FETCH)
# B3: Cx34.7K222Q (Morone americana Cx34.7 mutant K222Q) (other)
# chain: B1 chain with K214E, K222Q, K223E, K225E
# notes: Extracellular loop mutant of the screening library; not shown: C-terminal fluorescent protein fusion (mEmerald or RFP670 in FETCH)
# B4: Cx34.7E214K/E223K (designer connexin Cx34.7M1, Morone americana Cx34.7 with E214K and E223K) (other)
# chain: B1 chain with K225E
# notes: Rationally designed hemichannel; In C. elegans expressed as GFP or mCherry fusion; in mice from AAV9 as mEmerald or mApple fusion; not shown: C-terminal fluorescent protein fusion (mEmerald or RFP670 in FETCH)
# B5: Cx35E224K (Morone americana Cx35 mutant E224K) (other)
# chain: T2 chain with E224K
# notes: as for B3
# B6: Cx35K221E (designer connexin Cx35M1, Morone americana Cx35 with K221E) (other)
# chain: T2 chain with K221E
# notes: Rationally designed hemichannel; In C. elegans expressed as GFP or mCherry fusion; in mice from AAV9 as mApple or mEmerald fusion; not shown: C-terminal fluorescent protein fusion (mEmerald or RFP670 in FETCH)
# B7: Cx35E224R (Morone americana Cx35 mutant E224R) (other)
# chain: T2 chain with E224R
# notes: as for B3
# How the values were obtained:
# [1] = target: Cx34.7E214K/E223K/E225K (Morone americana Cx34.7 triple mutant) (Morone americana); assay: FETCH (flow cytometry, % dual-labelled HEK 293FT cells), homotypic
# human connexin36 (Cx36) [2] = target: T1, human connexin36 (Cx36); assay: FETCH (flow cytometry, % dual-labelled HEK 293FT cells), heterotypic
# Experimental: (§1) Complete FETCH methodology is outlined in Ransey et. al. 2021 (Ransey E, et al. (2021) BioRxiv). Briefly, replica multi-well plates with HEK 293FT cells were transfected with either of the two connexin proteins being evaluated for docking. Following a transfection incubation period, experimental counterparts were combined, replated, and further incubated for about 20 hr to about 24 hrs, allowing cells to make contacts and potentially generate connexosomes. Co-plated samples were trypsinized, fixed in suspension and analyzed via flow cytometry. Flow cytometry data was processed with two selection gates prior to their fluorescence evaluation. First, putative HEK cells were identified by evaluating sample forward vs. side scatter area. Next, single cells were identified as the putative cells that maintained a linear correlation of forward scatter height to forward scatter area. Finally, the dual fluorescence (mEmerald vs. RFP670) profiles of each sample was generated, and the FETCH score was defined as the proportion of dual-labeled fluorescent cells that develop in a co-plated sample.
# [3] = target: T2, Wild-type Connexin35 (Cx35) of Morone …; assay: heterotypic FETCH
# Experimental: as §1
# [4] = target: the molecule itself; assay: FETCH (flow cytometry, % dual-labelled HEK 293FT cells), homotypic
# Experimental: as §1
# human connexin43 (Cx43) [5] = target: T4, human connexin43 (Cx43) (human, UniProt P17302 2-382); assay: FETCH (flow cytometry, % dual-labelled HEK 293FT cells), heterotypic, n=6
# T4 construct: whole, on cells; Hemichannel expressed in HEK 293FT cells for FETCH; also called GJA1; not shown: C-terminal fluorescent protein fusion (mEmerald or RFP670 in FETCH)
# Experimental: as §1
# homotypic FETCH screen = target: the molecule itself; assay: homotypic FETCH screen
# Experimental: as §1
# (§2) For screening analysis, five FETCH replicates were obtained for each condition (mutation). These scores were benchmarked against scores for Cx36 and Cx45 (FETCH=1.2±0.1%, n=54 replicates). To quantitatively determine whether a connexin pair docked, FETCH scores were determined for the dual fluorescence of cells under conditions where docking was not anticipated. These conditions included pairs of connexins previously established to not show docking: (i) Cx36 and Cx45 (FETCH=0.7±0.0%, n=59 replicates), (ii) homotypic Cx23 (FETCH=0.9±0.4%, n=6 previously collected replicates (Ransey E, et al. (2021) BioRxiv), and (iii) Cx36 and Cx43 (FETCH=1.2±0.2%, n=10 previously collected replicates (Ransey E, et al. (2021) BioRxiv), and under conditions for which cells were transfected with cytoplasmic fluorophores rather than tagged connexins (FETCH=4.4±0.6%, n=17 previously collected replicates (Ransey E, et al. (2021) BioRxiv).
# human connexin43 (Cx43) [6] = target: T4, human connexin43 (Cx43); assay: heterotypic FETCH
# Experimental: as §1
# [7] = target: B7; assay: heterotypic FETCH; score higher than for the wild type Cx34.7WT/Cx35WT pair
# Experimental: as §1, §2
# [8] = target: T3, Cx35E224H (Morone americana Cx35 mutant …); assay: as above
# Experimental: as §1, §2
# [9] = target: B5; assay: as above
# Experimental: as §1, §2
# human connexin43 (Cx43) [10] = target: T4, human connexin43 (Cx43); assay: FETCH (flow cytometry, % dual-labelled HEK 293FT cells), heterotypic
# Experimental: as §1
# [11] = target: B6; assay: as above
# Experimental: as §1
# homotypic FETCH = target: the molecule itself; assay: homotypic FETCH
# Experimental: as §1
# human connexin36 (Cx36) [12] = target: T1, human connexin36 (Cx36); assay: heterotypic FETCH
# Experimental: as §1
# [13] = target: Cx34.7E214K/E223K/E225K (Morone americana Cx34.7 triple mutant) (Morone americana); assay: FETCH (flow cytometry, % dual-labelled HEK 293FT cells), heterotypic
# T4 sequence (P17302 2-382): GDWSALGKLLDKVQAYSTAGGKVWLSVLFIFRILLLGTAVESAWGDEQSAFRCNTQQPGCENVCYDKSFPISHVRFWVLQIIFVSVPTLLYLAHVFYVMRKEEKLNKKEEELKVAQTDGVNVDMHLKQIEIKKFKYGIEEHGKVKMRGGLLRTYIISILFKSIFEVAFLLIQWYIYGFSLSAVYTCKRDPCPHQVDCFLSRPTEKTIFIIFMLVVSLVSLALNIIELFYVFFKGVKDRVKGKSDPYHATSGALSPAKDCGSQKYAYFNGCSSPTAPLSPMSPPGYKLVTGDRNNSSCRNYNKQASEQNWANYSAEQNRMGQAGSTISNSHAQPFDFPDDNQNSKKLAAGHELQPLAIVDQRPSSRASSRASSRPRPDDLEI
FETCH score (human connexin36 (Cx36) [2]),FETCH score (human connexin43 (Cx43) [5]),binding result (human connexin43 (Cx43) [6]),binding result (human connexin36 (Cx36) [12]),Binder,FETCH score [4],binding result (homotypic FETCH screen),further results
–,–,–,–,B1,–,–,FETCH score [1]: 0.2%
11.9%,–,–,–,B2,–,–,binding result [3]: binds
22.8%,1.3%,no binding,–,B3,0.4%,no binding,binding result [7]: binds; binding result [8]: binds; binding result [9]: binds
1%,–,no binding,no binding,B4,1.1%,–,FETCH score (human connexin43 (Cx43) [10]): 0.9%; FETCH score [11]: 35.7%; binding result (homotypic FETCH): no binding
0.8%,0.5%,no binding,no binding,B5,–,no binding,–
1.5%,–,no binding,no binding,B6,1.2%,–,FETCH score [13]: 1.2%; FETCH score (human connexin43 (Cx43) [10]): 1.7%; binding result (homotypic FETCH): no binding
0.6%,0.5%,no binding,no binding,B7,–,no binding,–
